In patent US11371056B2, “HPPD variants and methods of use” (BASF Agricultural Solutions Seed US LLC, priority 2017, dated 2022):

Test system: Pseudomonas fluorescens HPPD polypeptide (wild-type and mutants)
Test: Coupled HPPD activity assay: turnover and residual turnover in crude HPPD polypeptide extracts with and without Cmpd. 1
Format: biochemical
Conditions: for Residual turnover [%]: 100 μM Cmpd. 1, normalised to turnover without inhibitor; for Turnover: absence of Cmpd. 1; for Turnover / Residual turnover: changes in absorbance (OD) at 320 nm in the coupled assay, 30 min; for Residual turnover: presence of 100 μM Cmpd. 1

B1: SEQ ID NO:45 (protein)
chain: MADLYENPMGLMGFEFIEFASPTPGTLEPIFEIMGFTKVATHRSKNVHLYRQGEINLILNNEPNSIASYFAAEHGPSVCGMAFRVKDSQKAYNRALELGAQPIHIDTGPMELNLPAIKGIGGAPLYLIDRFGEGSSIYDIDFVYLEGVERNPVGAGLKVIDHLTHNVYRGRMVYWANFYEKLFNFREARYFDIKGEYTGLTSKAMSAPDGMIKIPLNEESSKGAGQIEEFLMQFNGEGIQHVAFLTDDLVKTWDALKKIGMRFMTAPGDEYYEMLEGRLPDHGEPVDQLQARGILLDGSSVEGDKRLLLQIFSETLMGPVFFEFIQRKGDDGFGPHSFKVLFESMERDQVRRGVLTAD
modifications: mutant HPPD polypeptide
With B1 the “Residual turnover [%]” value was 60%, the Turnover was 0.275 and the Residual turnover was 0.164.

B2: SEQ ID NO:52 (protein)
chain: MADLYENPMGLMGFEFIEFASPTPGTLEPIFEIMGFTKVATHRSKNVHLYRQGEINLILNNEPNSIASYFAAEHGPSVCGMAFRVKDSQKAYNRALELGAQPIHIDTGPMELNLPAIKGIGGAPLYLIDRFGEGSSIYDIDFVYLEGVERNPVGAGLKVIDHLTHNVYRGRMVYWANFYEKLFNFREARYFDIKGEYTGLTSKAMSAPDGMIRIALNEESSKGAGQIEEFLMQFNGEGIQHVAFLTDDLVKTWDALKKIGMRFMTAPGDEYYEMLEGRLPDHGEPVDQLQARGILLDGSSVEGDKRLLLQIFSERLMGPVFFEFIQRKGDDGFGPHSFKVLFESIERDQVRRGVLTAD
modifications: mutant HPPD polypeptide
For B2, the “Residual turnover [%]” value was 61%, the Turnover was 0.173 and the Residual turnover was 0.105.

B3: SEQ ID NO:49 (protein)
chain: MADLYENPMGLMGFEFIEFASPTPGTLEPIFEIMGFTKVATHRSKNVHLYRQGEINLILNNEPNSIASYFAAEHGPSVCGMAFRVKDSQKAYNRALELGAQPIHIDTGPMELNLPAIKGIGGAPLYLIDRFGEGSSIYDIDFVYLEGVERNPVGAGLKVIDHLTHNVYRGRMVYWANFYEKLFNFREARYFDIKGEYTGLTSKAMSAPDGMIKIPLNEESSKGAGQIEEFLMQFNGEGIQHVAFLTDDLVKTWDALKKIGMRFMTAPGDEYYEMLEGRLPDHGEPVDQLQARGILLDGSSVEGDKRLLLQIFSEQLMGPVFFEFIQRKGDDGFGPHSFKVLFESIERDQVRRGVLTAD
modifications: mutant HPPD polypeptide
In the case of B3, the “Residual turnover [%]” value is reported as 52%, the Turnover is reported as 0.318 and the Residual turnover is reported as 0.165.

B4: SEQ ID NO:48 (protein)
chain: MADLYENPMGLMGFEFIEFASPTPGTLEPIFEIMGFTKVATHRSKNVHLYRQGEINLILNNEPNSIASYFAAEHGPSVCGMAFRVKDSQKAYNRALELGAQPIHIDTGPMELNLPAIKGIGGAPLYLIDRFGEGSSIYDIDFVYLEGVERNPVGAGLKVIDHLTHNVYRGRMVYWANFYEKLFNFREARYFDIKGEYTGLTSKAMSAPDGMIKIPLNEESSKGAGQIEEFLMQFNGEGIQHVAFLTDDLVKTWDALKKIGMRFMTAPGDEYYEMLEGRLPDHGEPVDQLQARGILLDGSSVEGDKRLLLQIFSETLMGPVFFEFIQRKGDDGFGPDSFKVLFESIERDQVRRGVLTAD
modifications: mutant HPPD polypeptide
With B4 the “Residual turnover [%]” value was 38%, the Turnover was 0.161 and the Residual turnover was 0.061.

B5: SEQ ID NO:46 (protein)
chain: MADLYENPMGLMGFEFIEFASPTPGTLEPIFEIMGFTKVATHRSKNVHLYRQGEINLILNNEPNSIASYFAAEHGPSVCGMAFRVKDSQKAYNRALELGAQPIHIDTGPMELNLPAIKGIGGAPLYLIDRFGEGSSIYDIDFVYLEGVERNPVGAGLKVIDHLTHNVYRGRMVYWANFYEKLFNFREARYFDIKGEYTGLTSKAMSAPDGMIKIPLNEESSKGAGQIEEFLMQFNGEGIQHVAFLTDDLVKTWDALKKIGMRFMTAPGDEYYEMLEGRLPDHGEPVDQLQARGILLDGSSVEGDKRLLLQIFSEKLMGPVFFEFIQRKGDDGFGPDSFKVLFESIERDQVRRGVLTAD
modifications: mutant HPPD polypeptide
B5 was tested, and the “Residual turnover [%]” value was 36%, the Turnover was 0.162 and the Residual turnover was 0.059.

B6: SEQ ID NO:50 (protein)
chain: MADLYENPMGLMGFEFIEFASPTPGTLEPIFEIMGFTKVATHRSKNVHLYRQGEINLILNNEPNSIASYFAAEHGPSVCGMAFRVKDSQKAYNRALELGAQPIHIDTGPMELNLPAIKGIGGAPLYLIDRFGEGSSIYDIDFVYLEGVERNPVGAGLKVIDHLTHNVYRGRMVYWANFYEKLFNFREARYFDIKGEYTGLTSKAMSAPDGMIKIPLNEESSKGAGQIEEFLMQFNGEGIQHVAFLTDDLVKTWDALKKIGMRFMTAPGDEYYEMLEGRLPDHGEPVDQLQARGILLDGSSVEGDKRLLLQIFSETLMGPVFFEFIQRKGDDGFGPHSFKVLFESIERDQVRRGVLTAD
modifications: mutant HPPD polypeptide
B6 was tested, and the “Residual turnover [%]” value was 54%, the Turnover was 0.272 and the Residual turnover was 0.148.

B7: SEQ ID NO:58 (protein)
chain: MADLYENPMGLMGFEFIEFASPTPGTLEPIFEIMGFTKVATHRSKNVHLYRQGEINLILNNEPNSIASYFAAEHGPSVCGMAFRVKDSQKAYNRALELGAQPIHIDTGPMELNLPAIKGIGGAPLYLIDRFGEGSSIYDIDFVYLEGVERNPVGAGLKVIDHLTHNVYRGRMVYWANFYEKLFNFREARYFDIKGEYTGLTSKAMSAPDGMIKIPLNEESSKGAGQIEEFLMQFNGEGIQHVAFLTDDLVKTWDALKKIGMRFLTAPGDEYYEMLEGRLPDHGEPVDQLQARGILLDGSSVEGDKRLLLQIFSEQLMGPVFFEFIQRKGDDGFGPHSFKVLFEQMERDQVRRGVLTAD
modifications: mutant HPPD polypeptide
B7 was tested, and the “Residual turnover [%]” value was 81%, the Turnover was 0.339 and the Residual turnover was 0.276.

B8: SEQ ID NO:56 (protein)
chain: MADLYENPMGLMGFEFIEFASPTPGTLEPIFEIMGFTKVATHRSKNVHLYRQGEINLILNNEPNSIASYFAAEHGPSVCGMAFRVKDSQKAYNRALELGAQPIHIDTGPMELNLPAIKGIGGAPLYLIDRFGEGSSIYDIDFVYLEGVERNPVGAGLKVIDHLTHNVYRGRMVYWANFYEKLFNFREARYFDIKGEYTGLTSKAMSAPDGMIRIPLNEESSKGAGQIEEFLMQFNGEGIQHVAFLTDDLVKTWDALKKIGMRFLTAPGDEYYEMLEGRLPDHGEPVDQLQARGILLDGSSVEGDKRLLLQIFSEQLMGPVFFEFIQRKGDDGFGPHSFKVLFEQMERDQVRRGVLTAD
modifications: mutant HPPD polypeptide
In the case of B8, the “Residual turnover [%]” value is reported as 75%, the Turnover is reported as 0.339 and the Residual turnover is reported as 0.253.

B9: SEQ ID NO:55 (protein)
chain: MADLYENPMGLMGFEFIEFASPTPGTLEPIFEIMGFTKVATHRSKNVHLYRQGEINLILNNEPNSIASYFAAEHGPSVCGMAFRVKDSQKAYNRALELGAQPIHIDTGPMELNLPAIKGIGGAPLYLIDRFGEGSSIYDIDFVYLEGVERNPVGAGLKVIDHLTHNVYRGRMVYWANFYEKLFNFREARYFDIKGEYTGLTSKAMSAPDGMIRIPLNEESSKGAGQIEEFLMQFNGEGIQHVAFLTDDLVKTWDALKKIGMRFLTAPGDEYYEMLEGRLPDHGEPVDQLQARGILLDGSSVEGDKRLLLQIFSEKLMGPVFFEFIQRKGDDGFGPHSFKVLFESMERDQVRRGVLTAD
modifications: mutant HPPD polypeptide
For B9, the “Residual turnover [%]” value was 58%, the Turnover was 0.303 and the Residual turnover was 0.177.

B10: SEQ ID NO:51 (protein)
chain: MADLYENPMGLMGFEFIEFASPTPGTLEPIFEIMGFTKVATHRSKNVHLYRQGEINLILNNEPNSIASYFAAEHGPSVCGMAFRVKDSQKAYNRALELGAQPIHIDTGPMELNLPAIKGIGGAPLYLIDRFGEGSSIYDIDFVYLEGVERNPVGAGLKVIDHLTHNVYRGRMVYWANFYEKLFNFREARYFDIKGEYTGLTSKAMSAPDGMIRIALNEESSKGAGQIEEFLMQFNGEGIQHVAFLTDDLVKTWDALKKIGMRFMTAPGDEYYEMLEGRLPDHGEPVDQLQARGILLDGSSVEGDKRLLLQIFSEQLMGPVFFEFIQRKGDDGFGPHSFKVLFESIERDQVRRGVLTAD
modifications: mutant HPPD polypeptide
In the case of B10, the “Residual turnover [%]” value is reported as 61%, the Turnover is reported as 0.173 and the Residual turnover is reported as 0.106.

B11: SEQ ID NO:53 (protein)
chain: MADLYENPMGLMGFEFIEFASPTPGTLEPIFEIMGFTKVATHRSKNVHLYRQGEINLILNNEPNSIASYFAAEHGPSVCGMAFRVKDSQKAYNRALELGAQPIHIDTGPMELNLPAIKGIGGAPLYLIDRFGEGSSIYDIDFVYLEGVERNPVGAGLKVIDHLTHNVYRGRMVYWANFYEKLFNFREARYFDIKGEYTGLTSKAMSAPDGMIRIPLNEESSKGAGQIEEFLMQFNGEGIQHVAFLTDDLVKTWDALKKIGMRFLTAPGDEYYEMLEGRLPDHGEPVDQLQARGILLDGSSVEGDKRLLLQIFSETLMGPVFFEFIQRKGDDGFGPHSFKVLFEQMERDQVRRGVLTAD
modifications: mutant HPPD polypeptide
B11 was tested, and the “Residual turnover [%]” value was 73%, the Turnover was 0.339 and the Residual turnover was 0.246.

B12: SEQ ID NO:54 (protein)
chain: MADLYENPMGLMGFEFIEFASPTPGTLEPIFEIMGFTKVATHRSKNVHLYRQGEINLILNNEPNSIASYFAAEHGPSVCGMAFRVKDSQKAYNRALELGAQPIHIDTGPMELNLPAIKGIGGAPLYLIDRFGEGSSIYDIDFVYLEGVERNPVGAGLKVIDHLTHNVYRGRMVYWANFYEKLFNFREARYFDIKGEYTGLTSKAMSAPDGMIRIPLNEESSKGAGQIEEFLMQFNGEGIQHVAFLTDDLVKTWDALKKIGMRFLTAPGDEYYEMLEGRLPDHGEPVDQLQARGILLDGSSVEGDKRLLLQIFSEKLMGPVFFEFIQRKGDDGFGPHSFKVLFEQMERDQVRRGVLTAD
modifications: mutant HPPD polypeptide
For B12, the “Residual turnover [%]” value was 82%, the Turnover was 0.274 and the Residual turnover was 0.224.

B13: SEQ ID NO:47 (protein)
chain: MADLYENPMGLMGFEFIEFASPTPGTLEPIFEIMGFTKVATHRSKNVHLYRQGEINLILNNEPNSIASYFAAEHGPSVCGMAFRVKDSQKAYNRALELGAQPIHIDTGPMELNLPAIKGIGGAPLYLIDRFGEGSSIYDIDFVYLEGVERNPVGAGLKVIDHLTHNVYRGRMVYWANFYEKLFNFREARYFDIKGEYTGLTSKAMSAPDGMIKIPLNEESSKGAGQIEEFLMQFNGEGIQHVAFLTDDLVKTWDALKKIGMRFMTAPGDEYYEMLEGRLPDHGEPVDQLQARGILLDGSSVEGDKRLLLQIFSERLMGPVFFEFIQRKGDDGFGPDSFKVLFESIERDQVRRGVLTAD
modifications: mutant HPPD polypeptide
For B13, the “Residual turnover [%]” value was 68%, the Turnover was 0.09 and the Residual turnover was 0.061.
